Assay results: the supplement of paper PMC7877785
± gives the uncertainty stated by the source.

Assay: self-splicing fitness, log relative to wild type (ln ratio); higher = more splicing; Tetrahymena group I intron in knt gene, E. coli kanamycin selection, DiMSum; sequences stand for … in CUCUCU…GGAGGGAAAAGUUAUCAGGCAUGCACCUGGUAGCUAGUCUUUAAACCAAUAGAUUGCAUCGGUUUAAAAGGCAAGACCGUCAAAUUGCGGGAAAGGGGUCAACAGCCGUUCAGUACCAAGUCUCAGGGGAAACUUUGAGAUGGCCUUGCAAAGGGUAUGGUAAUAAGCUGACGGACAUGGUCCUAACCACGCAGCCAAGUCCUAAGUCAACAGAUCUUCUGUUGAUAUGGAUGCAGUUCACAGACUAAAUGUCGGUCGGGGAAGAUGUAUUCUUCUCAUAAGAUAUAGUCGGACCUCUCCUUAAUGGGAGCUAGCGGAUGAAGUGAUGCAACACUGGAGCCGCUGGGAACUAAUUUGUAUGCGAAAGUAUAUUGAUUAGUUUUGGAGUACUCGUGGUCG
Summary of the method: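 Library with all eight P1ex-region intron nucleotides randomised, intron inside the knt kanamycin-resistance gene on pET-22b(+), in E. coli BL21(DE3). Cells grew overnight at 37°C or 30°C on LB agar with or without 25 μg/mL kanamycin (plus 100 μg/mL carbenicillin, 50 μM IPTG, 0.2% rhamnose), in six replicate transformations. Pooled colonies were amplicon-sequenced on Illumina HiSeq 2500. DiMSum fitness is the error-weighted combination of wild-type-normalised replicate fold changes, kanamycin versus none.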

| Sequence | self-splicing fitness (ln) (30 °C) | self-splicing fitness (ln) (37 °C) |
| --- | --- | --- |
| CCGGAGCAAUAUUACGUGUG | -1.68 ± 0.039 | -1.05 ± 0.061 |
| CUAAAGCAAUAUUACGCCUC | -3.62 ± 0.21 | -1.85 ± 0.27 |
| CCAUAGCAAUAUUACGAGAU | -3.81 ± 0.35 | -2.12 ± 0.21 |
| CUCCAGCAAUAUUACGGUAA | -1.4 ± 0.13 | -1.8 ± 0.15 |
| CUUAAGCAAUAUUACGCACC | -1.86 ± 0.45 |  |
| AAUAAGCAAUAUUACGCUCG | -0.686 ± 0.14 | 0.0576 ± 0.19 |
| GGAUAGCAAUAUUACGCCAG | -2.63 ± 0.32 | -0.526 ± 0.34 |
| AAAGAGCAAUAUUACGCUCC | -2.57 ± 0.3 | -2 ± 0.41 |
| GUAAAGCAAUAUUACGACAA | -0.153 ± 0.12 | -0.2 ± 0.13 |
| CUUAAGCAAUAUUACGCCUU |  | -2.63 ± 0.39 |
| UUCAAGCAAUAUUACGUAGA | -1.5 ± 0.094 | -0.928 ± 0.14 |
| AAAUAGCAAUAUUACGGCUC | -0.691 ± 0.14 | 0.393 ± 0.18 |
